Assay results from patent US20050282743A1, “Molecular interactions in cells” (Arbor Vita Corporation, priority 2001, published 2005).

Columns and labels:
[1] = target: T1, GST-MUPP1 PDZ domain 7 (Homo sapiens (Human)), O75970; assay: G assay titration, PDZ 5 ug/ml
T1 chain: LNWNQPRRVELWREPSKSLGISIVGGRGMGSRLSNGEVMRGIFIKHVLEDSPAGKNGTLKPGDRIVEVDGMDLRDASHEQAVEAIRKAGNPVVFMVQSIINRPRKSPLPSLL

[2] = target: T2, GST-INADL PDZ domain 3 (Homo sapiens (Human)), Q8NI35; assay: G assay titration, PDZ 5 ug/ml
T2 chain: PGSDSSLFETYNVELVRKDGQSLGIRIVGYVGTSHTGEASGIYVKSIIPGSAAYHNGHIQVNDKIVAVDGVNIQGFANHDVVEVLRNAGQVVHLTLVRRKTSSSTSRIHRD

[3] = target: T3, GST-AIPC PDZ domain 1 (Homo sapiens (Human)), O15018; assay: G assay titration, PDZ 5 ug/ml
T3 chain: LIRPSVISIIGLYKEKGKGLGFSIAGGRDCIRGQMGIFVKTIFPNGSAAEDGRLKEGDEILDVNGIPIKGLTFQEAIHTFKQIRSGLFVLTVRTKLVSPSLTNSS

[4] = target: T4, GST-MUPP1 PDZ domain 9 (Homo sapiens (Human)), O75970; assay: G assay titration, PDZ 5 ug/ml
T4 chain: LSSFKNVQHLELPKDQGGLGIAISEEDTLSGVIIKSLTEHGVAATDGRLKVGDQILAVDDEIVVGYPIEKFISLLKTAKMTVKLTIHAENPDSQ

[5] = target: T5, GST-KIAA1719 PDZ domain 5 (Homo sapiens (Human)), Q9C0E4; assay: G assay titration, PDZ 5 ug/ml
T5 chain: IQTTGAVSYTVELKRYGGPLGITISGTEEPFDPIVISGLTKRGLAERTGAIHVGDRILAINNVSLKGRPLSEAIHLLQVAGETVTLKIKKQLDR

[6] = target: T6, GST-ZO-1 PDZ domain 2 (Rattus norvegicus (Rat)), A0A0G2; assay: G assay titration, PDZ 5 ug/ml
T6 chain: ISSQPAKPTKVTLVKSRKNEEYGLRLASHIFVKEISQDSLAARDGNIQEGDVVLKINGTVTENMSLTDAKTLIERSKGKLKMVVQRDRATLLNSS

[7] = target: T7, GST-FLJ 10324 PDZ domain 1 [GST: P08515]; assay: G assay titration, PDZ 5 ug/ml
T7 chain: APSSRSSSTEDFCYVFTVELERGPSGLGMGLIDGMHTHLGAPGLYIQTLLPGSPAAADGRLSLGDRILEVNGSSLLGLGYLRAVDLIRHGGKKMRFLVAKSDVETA

[8] = target: T8, GST-KIAA1719 PDZ domain 6 (Homo sapiens (Human)), Q9C0E4; assay: G assay titration, PDZ 5 ug/ml
T8 chain: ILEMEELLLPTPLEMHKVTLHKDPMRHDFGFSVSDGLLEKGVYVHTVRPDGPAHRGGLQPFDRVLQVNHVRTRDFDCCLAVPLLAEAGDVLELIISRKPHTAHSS

[9] = target: T9, GST-GRIP 1 PDZ domain 6 (Mus musculus (Mouse)), Q925T6; assay: G assay titration, PDZ 5 ug/ml
T9 chain: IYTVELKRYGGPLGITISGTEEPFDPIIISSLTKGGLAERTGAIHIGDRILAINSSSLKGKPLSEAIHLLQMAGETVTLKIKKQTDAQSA

[10] = target: T10, GST-MUPP1 PDZ domain 3 (Homo sapiens (Human)), O75970; assay: G assay titration, PDZ 5 ug/ml
T10 chain: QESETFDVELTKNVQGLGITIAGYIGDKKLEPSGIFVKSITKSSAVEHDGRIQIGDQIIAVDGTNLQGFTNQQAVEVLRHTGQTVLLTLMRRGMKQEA

[11] = target: T11, GST-PICK1 PDZ domain 1 (Bos taurus (Bovine)), Q2T9M1; assay: G assay titration, PDZ 5 ug/ml
T11 chain: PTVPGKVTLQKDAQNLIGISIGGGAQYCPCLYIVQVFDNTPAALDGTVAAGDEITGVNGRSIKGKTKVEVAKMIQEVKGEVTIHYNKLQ

[12] = target: T12, GST-MINT1 PDZ domains 1, 2, Q02410; assay: G assay titration, PDZ 5 ug/ml
T12 chain: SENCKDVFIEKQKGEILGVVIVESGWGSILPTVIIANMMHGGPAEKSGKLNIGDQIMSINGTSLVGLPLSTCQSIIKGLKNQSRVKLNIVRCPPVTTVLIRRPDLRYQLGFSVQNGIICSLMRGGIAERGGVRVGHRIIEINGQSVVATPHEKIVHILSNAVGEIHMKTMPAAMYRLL

[13] = target: T1, GST-MUPP1 PDZ domain 7 (Homo sapiens …); assay: G' assay; further: key of the grades not given here
[14] = target: T2, GST-INADL PDZ domain 3 (Homo sapiens …); assay: G' assay; further: key of the grades not given here
[15] = target: T3, GST-AIPC PDZ domain 1 (Homo sapiens …); assay: G' assay; further: key of the grades not given here
[16] = target: T4, GST-MUPP1 PDZ domain 9 (Homo sapiens …); assay: G' assay; further: key of the grades not given here
[17] = target: T13, GST-KIAA0380 PDZ domain 1 (Homo sapiens (Human)), O15085; assay: G' assay; further: key of the grades not given here
T13 chain: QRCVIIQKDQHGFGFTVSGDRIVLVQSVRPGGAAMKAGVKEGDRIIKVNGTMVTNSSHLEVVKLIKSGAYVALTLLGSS

[18] = target: T5, GST-KIAA1719 PDZ domain 5 (Homo sapiens …); assay: G' assay; further: key of the grades not given here
[19] = target: T6, GST-ZO-1 PDZ domain 2 (Rattus …); assay: G' assay; further: key of the grades not given here
[20] = target: T7, GST-FLJ 10324 PDZ domain 1 [GST: P08515]; assay: G' assay
[21] = target: GST-PAR3 PDZ domain 3 (Homo sapiens (Human)), Q8TEW0; assay: G' assay; further: key of the grades not given here
GST-PAR3 PDZ domain 3 (Homo sapiens (Human)), Q8TEW0, sequence (Q8TEW0 579-681): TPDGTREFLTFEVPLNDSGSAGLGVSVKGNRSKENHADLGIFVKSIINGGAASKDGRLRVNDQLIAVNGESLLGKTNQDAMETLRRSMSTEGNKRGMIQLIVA

[22] = target: T8, GST-KIAA1719 PDZ domain 6 (Homo sapiens …); assay: G' assay
[23] = target: T9, GST-GRIP 1 PDZ domain 6 (Mus musculus …); assay: G' assay
[24] = target: T10, GST-MUPP1 PDZ domain 3 (Homo sapiens …); assay: G' assay
[25] = target: T11, GST-PICK1 PDZ domain 1 (Bos taurus …); assay: G' assay
[26] = target: T12, GST-MINT1 PDZ domains 1, 2, Q02410; assay: G' assay
[27] = target: GST-PAR3 PDZ domain 3 (Homo sapiens (Human)), Q8TEW0; assay: G assay titration, PDZ 1 ug/ml
[28] = target: T14, GST-LU-1 PDZ domain 1 (Homo sapiens (Human)), Q76G19; assay: G' assay; further: key of the grades not given here
T14 chain: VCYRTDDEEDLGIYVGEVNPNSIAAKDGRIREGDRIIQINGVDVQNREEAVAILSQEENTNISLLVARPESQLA

[29] = target: T15, GST-MUPP1 PDZ domain 4 (Homo sapiens (Human)), O75970; assay: G' assay; further: key of the grades not given here
T15 chain: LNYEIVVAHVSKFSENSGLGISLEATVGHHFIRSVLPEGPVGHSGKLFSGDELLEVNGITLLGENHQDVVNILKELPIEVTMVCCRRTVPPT

[30] = target: T16, GST-APXL-1 PDZ domain 1 (Homo sapiens (Human)), Q13796; assay: G' assay; further: key of the grades not given here
T16 chain: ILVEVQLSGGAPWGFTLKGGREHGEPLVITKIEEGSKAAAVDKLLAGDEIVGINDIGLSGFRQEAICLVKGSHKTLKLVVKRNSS

[31] = target: T17, GST-MINT1 PDZ domain 2 (Mus musculus (Mouse)), B2RUJ5; assay: G' assay; further: key of the grades not given here
T17 chain: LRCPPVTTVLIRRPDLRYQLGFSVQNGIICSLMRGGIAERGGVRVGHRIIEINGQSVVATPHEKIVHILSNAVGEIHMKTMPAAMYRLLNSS

[32] = target: T18, GST-KIAA1719 PDZ domain 3 (Homo sapiens (Human)), Q9C0E4; assay: G' assay; further: key of the grades not given here
T18 chain: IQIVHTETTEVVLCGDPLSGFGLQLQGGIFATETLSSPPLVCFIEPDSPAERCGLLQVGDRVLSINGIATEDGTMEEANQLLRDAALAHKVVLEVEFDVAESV

[33] = target: GST-CARD14 PDZ domain 1 (Homo sapiens (Human)), Q9BXL6; assay: G' assay; further: key of the grades not given here
GST-CARD14 PDZ domain 1 (Homo sapiens (Human)), Q9BXL6, sequence (Q9BXL6 565-664): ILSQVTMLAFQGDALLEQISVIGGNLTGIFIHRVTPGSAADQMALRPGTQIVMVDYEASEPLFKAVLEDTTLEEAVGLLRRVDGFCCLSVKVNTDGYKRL

[34] = target: T19, GST-GRIP 1 PDZ domain 5 (Homo sapiens (Human)), Q9Y3R0; assay: G' assay; further: key of the grades not given here
T19 chain: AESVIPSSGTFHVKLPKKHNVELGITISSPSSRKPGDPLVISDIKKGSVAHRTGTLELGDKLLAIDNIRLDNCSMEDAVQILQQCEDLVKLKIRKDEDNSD

[35] = target: T20, GST-PTPL1 PDZ domain 5 (Homo sapiens (Human)), Q12923; assay: G' assay; further: key of the grades not given here
T20 chain: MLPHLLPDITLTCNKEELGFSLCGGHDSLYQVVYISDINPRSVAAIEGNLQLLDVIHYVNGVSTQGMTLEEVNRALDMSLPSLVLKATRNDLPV

[36] = target: T21, GST-DVL2 PDZ domain 1 (Homo sapiens (Human)), O14641; assay: G' assay; further: key of the grades not given here
T21 chain: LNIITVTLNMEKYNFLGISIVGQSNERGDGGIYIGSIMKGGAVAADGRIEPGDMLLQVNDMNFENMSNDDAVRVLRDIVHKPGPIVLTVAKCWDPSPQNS

[37] = target: T22, GST-KIAA0973 PDZ domain 1 (Homo sapiens (Human)), Q9Y2H9; assay: G' assay; further: key of the grades not given here
T22 chain: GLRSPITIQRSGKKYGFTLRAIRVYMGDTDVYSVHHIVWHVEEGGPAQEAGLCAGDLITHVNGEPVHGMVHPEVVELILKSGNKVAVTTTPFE

[38] = target: T23, GST-MPP2 PDZ domain 1 (Homo sapiens (Human)), Q14168; assay: G' assay; further: key of the grades not given here
T23 chain: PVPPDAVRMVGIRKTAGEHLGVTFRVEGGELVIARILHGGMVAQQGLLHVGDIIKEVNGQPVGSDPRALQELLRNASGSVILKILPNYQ

[39] = target: T24, GST-HEMBA 1003117 PDZ domain 1 (Homo sapiens (Human)), Q96JH8; assay: G' assay; further: key of the grades not given here
T24 chain: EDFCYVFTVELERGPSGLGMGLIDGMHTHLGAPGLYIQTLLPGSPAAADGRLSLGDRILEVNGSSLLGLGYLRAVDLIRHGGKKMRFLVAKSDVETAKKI

## HHLVAQRDIRQFQLQHWLAI (modifications not checked) [noradrenaline transporter]
[1]
  Kd: 800 nM
[2]
  Kd: 600 nM
[3]
  Kd: 600 nM
[4]
  Kd: 700 nM
[5]
  Kd: 1000 nM
[6]
  Kd: 400 nM
[7]
  Kd: 600 nM
[8]
  Kd: 800 nM
[9]
  Kd: 500 nM
[10]
  Kd: 400 nM
[11]
  Kd: 1000 nM
[12]
  Kd: 500 nM
[13]
  Classification: 3 A450 class
[14]
  Classification: 3 A450 class
[15]
  Classification: 2 A450 class
[16]
  Classification: 3 A450 class
[17]
  Classification: 1 A450 class
[18]
  Classification: 2 A450 class
[19]
  Classification: 2 A450 class
[20]
  Classification: 3 A450 class
[21]
  Classification: 4 A450 class
[22]
  Classification: 2 A450 class
[23]
  Classification: 2 A450 class
[24]
  Classification: 4 A450 class
[25]
  Classification: 1 A450 class
[26]
  Classification: 3 A450 class
[27]
  Kd: 600 nM

## DFRPSFKHILFRRARRGFRQ (modifications not checked) [alpha-2C Adrenergic receptor]
[28]
  Classification: 4 A450 class
[29]
  Classification: 3 A450 class
[30]
  Classification: 3 A450 class
[31]
  Classification: 3 A450 class
[32]
  Classification: 5 A450 class
[33]
  Classification: 5 A450 class
[34]
  Classification: 1 A450 class
[35]
  Classification: 3 A450 class
[36]
  Classification: 3 A450 class
[37]
  Classification: 3 A450 class

## LAVLAYSITLVMLWSIWQYA (modifications not checked) [Serotonin receptor 3a]
[38]
  Classification: 2 A450 class
[39]
  Classification: 2 A450 class
[33]
  Classification: 2 A450 class
